Measurements from patent publication US20250325702A1, “COMPOSITIONS AND METHODS FOR EDITING A TRANSTHYRETIN GENE” (Beam Therapeutics Inc., priority 2022, published 2025).
In the oligonucleotide strings, read from the 5' end, every base follows the letter of its sugar. An asterisk marks phosphorothioate; unmarked linkages are phosphodiester. Other units and linkages are bracketed, terminal groups are in braces. A string of capitals states the bases alone. m = 2'-O-methyl; r = 2'-OH (RNA)

Assays:
[1] = test system: human TTR gene; assay: Base editing in primary human hepatocytes (gRNA + ABE8.8 mRNA transfection, NGS of amplicons); format: cell-based; conditions: for Human hepatocytes- Editing % 625, rep 1 / Human hepatocytes- Editing % 625, rep 2: 625 ng/RNA/mL; for Human hepatocytes- Editing % 625, rep 1 / Human hepatocytes- Editing % 625, rep 2 / Human hepatocytes- Editing % 1250, rep 1 / Human hepatocytes- Editing % 1250, rep 2 / Human hepatocytes- Editing % 2500, rep 1 / Human hepatocytes- Editing % 2500, rep 2: gRNA + ABE8.8 mRNA 1:1; for Human hepatocytes- Editing % 1250, rep 1 / Human hepatocytes- Editing % 1250, rep 2: 1250 ng/RNA/mL; for Human hepatocytes- Editing % 2500, rep 1 / Human hepatocytes- Editing % 2500, rep 2: 2500 ng/RNA/mL; for editing activity (percent splice editing) in human hepatocytes: primary human hepatocytes, ABE8.8 mRNA 1:1, three days after transfection
Text: In this example, gRNA sequences were identified that permit ABE8.8 (and other ABE variants containing Streptococcus pyogenes Cas9, such as ABE7.10, or another Cas protein that can use the NGG PAM) to either: 1) disrupt the start codon, and/or 2) disrupt splice sites, whether donors or acceptors, via A→G editing within its editing window (roughly positions 4 to 7 in the 20-nt protospacer region of DNA). Five sequences were identified throughout the human TTR gene that disrupt TTR expression (Table 8). gRNAs were synthesized matching each of the protospacer sequences and otherwise conforming to the standard 100-nt Streptococcus pyogenes CRISPR gRNA sequence, with each gRNA molecule having a minimal degree of chemical modifications (specified in Table 8). Each of the gRNAs was co-transfected with an equivalent amount of in vitro transcribed ABE8.8 mRNA (1:1 ratio by molecular weight) into primary human hepatocytes via MessengerMax reagent (Lipofectamine), using various dilutions (2500,1250, 625 ng/RNA/mL) to assess for editing activity at different concentrations of test article.
(§1) For orthogonal protospacer sequences of the corresponding cynomolgus monkey TTR gene sequence, each gRNA was also transfected with an equivalent amount of ABE8.8 mRNA (1:1 ratio by molecular weight) into primary cynomolgus hepatocytes at 5000, 2500, 1250, 625, 312.5, and 156.25 ng/RNA/mL. The mRNA, and corresponding amino acid, sequence of the ABE8.8 (MA004) used in shown below in Table 18. Three days after transfection, genomic DNA was harvested from the hepatocytes, and assessed for base editing with next-generation sequencing of PCR amplicons generated around the target splice site. […] See FIGS. 5A-5C, FIG. 6, and Tables 9-10.

[2] = test system: on-target site and candidate off-target sites; assay: Validation of candidate off-target sites in primary human hepatocytes; format: cell-based; conditions: for editing efficiency at the on-target site: gRNA + ABE8.8 mRNA
Description: Several candidate off-target sites were analyzed for off-target editing in human primary hepatocytes.

[3] = molecular target: purified cyno TTR protein (Abcam, ab239566) (cyno (Macaca fascicularis)) (UniProt Q8HXW1); assay: sandwich ELISA; known concentrations of purified cyno TTR run on the human TTR kit, read against the human TTR standards
[4] = test system: cynomolgus monkey TTR gene; assay: Base editing in primary cynomolgus hepatocytes (gRNA + ABE8.8 mRNA transfection, NGS); format: cell-based; conditions: for Cyno hepatocytes- Editing % 156.25: 156.25 ng/RNA/mL; for Cyno hepatocytes- Editing % 156.25 / Cyno hepatocytes- Editing % 312.5 / Cyno hepatocytes- Editing % 625 / Cyno hepatocytes- Editing % 1250 / Cyno hepatocytes- Editing % 2500 / Cyno hepatocytes- Editing % 5000: gRNA + ABE8.8 mRNA 1:1; for Cyno hepatocytes- Editing % 312.5: 312.5 ng/RNA/mL; for Cyno hepatocytes- Editing % 625: 625 ng/RNA/mL; for Cyno hepatocytes- Editing % 1250: 1250 ng/RNA/mL; for Cyno hepatocytes- Editing % 2500: 2500 ng/RNA/mL; for Cyno hepatocytes- Editing % 5000: 5000 ng/RNA/mL; for editing activity in cynomolgus primary hepatocytes: ABE8.8 mRNA 1:1, three days after transfection
Description: as §1

[5] = test system: transthyretin (TTR) gene; assay: Guide RNA screen in HEK293T cells: splice site disruption by base editors and bhCas12b nuclease (Example 5); format: cell-based, human; conditions: editor mRNA + sgRNA
Description: The guide RNAs listed in Table 1 were screened for use in editing the transthyretin (TTR) gene by disrupting splice sites (FIG. 29A-29C) or using a bhCas12b nuclease strategy (FIG. 30). 15 total guide RNAs were screened. The screen was performed in HEK293T cells using based editors and bhCas12b delivered as mRNA and the sgRNAs. The guide RNAs sgRNA_361 and sgRNA_362 worked well in splice site disruption (FIGS. 29A-29C) using ABE and/or BE4. Several of the gRNAs functioned well as bhCas 12b nuclease gRNAs.
Cells were cultured at 37° C. with 5% CO2. HEK293T cells [CLBTx013, American Type Cell Culture Collection (ATCC)] were cultured in Dulbecco's modified Eagles medium plus Glutamax (10566-016, Thermo Fisher Scientific) with 10% (v/v) fetal bovine serum (A31606-02, Thermo Fisher Scientific). Cells were tested negative for mycoplasma after receipt from supplier.
HEK293T cells were seeded onto 48-well well Poly-D-Lysine treated BioCoat plates (Corning) at a density of 35,000 cells/well and transfected 18-24 hours after plating. Cells were counted using a NucleoCounter NC-200 (Chemometec). A solution was prepared containing Opti-MEM reduced serum media (ThermoFisher Scientific), the base editor, nuclease, or control mRNA, and sgRNA. The solution was combined with Lipofectamine MessengerMAX (ThermoFisher) in Opti-MEM reduced serum media and left to rest at room temperature for 15 min. […]

[6] = GA459 On-target site (SEQ ID NO: 468)
[7] = GA459 off-target site OT1 (SEQ ID NO: 1095)
[8] = GA459 off-target site OT3 (SEQ ID NO: 1096)

Question: What does the source list for “GA457: guide RNA, spacer 5′-GCCAUCCUGCCAAGAAUGAG-3′ (SEQ ID NO: 472), human TTR”?
Answer: Human hepatocytes- Editing % 625, rep 1 [1]: 17.24%; Human hepatocytes- Editing % 625, rep 2 [1]: 15.39%; Human hepatocytes- Editing % 1250, rep 1 [1]: 26.49%; Human hepatocytes- Editing % 1250, rep 2 [1]: 24.86%; Human hepatocytes- Editing % 2500, rep 1 [1]: 33.96%; Human hepatocytes- Editing % 2500, rep 2 [1]: 31.31%; editing activity (percent splice editing) in human hepatocytes [1]: high editing activity; net editing at off-target sites ([2]; 47 candidate off-target sites, primary human hepatocytes): less than 0.4%; editing efficiency at the on-target site ([2]; primary human hepatocytes): high editing efficiency

Question: With “antibodies of the human prealbumin (TTR) ELISA kit (Abcam, ab231920) (antibody)” as the molecule, how does the cross-reactivity [3] read?
Answer: 4%

B1: GA460: guide RNA, spacer 5′-UAUAGGAAAACCAGUGAGUC-3′ (SEQ ID NO: 475) (nucleic acid)
guide: TATAGGAAAACCAGTGAGTCGTTTTAGAGCTAGAAATAGCAAGTTAAAATAAGGCTAGTCCGTTATCAACTTGAAAAAGTGGCACCGAGTCGGTGCTTTT
modifications: chemistry not given here
Question: With B1 as the molecule, how does the “Human hepatocytes- Editing % 625, rep 1” value [1] read?
Answer: 23.77%

Question: What about the “Human hepatocytes- Editing % 625, rep 2” value [1] of the same molecule?
Answer: 22.27%

Question: What about the “Human hepatocytes- Editing % 1250, rep 1” value [1] of the same molecule?
Answer: 38.33%

Question: And the “Human hepatocytes- Editing % 1250, rep 2” value [1]?
Answer: 35.8%

Question: And the “Human hepatocytes- Editing % 2500, rep 1” value [1]?
Answer: 47.61%

Question: What about the “Human hepatocytes- Editing % 2500, rep 2” value [1] of the same molecule?
Answer: 47.79%

Question: And the “editing activity (percent splice editing) in human hepatocytes” value [1]?
Answer: high editing activity

Question: What about the “Cyno hepatocytes- Editing % 156.25” value [4] of the same molecule?
Answer: 1.62%

Question: And the “Cyno hepatocytes- Editing % 312.5” value [4]?
Answer: 11.22%

Question: And the “Cyno hepatocytes- Editing % 625” value [4]?
Answer: 18.44%

Question: What about the “Cyno hepatocytes- Editing % 1250” value [4] of the same molecule?
Answer: 31.71%

Question: What about the “Cyno hepatocytes- Editing % 2500” value [4] of the same molecule?
Answer: 38.25%

Question: What about the “Cyno hepatocytes- Editing % 5000” value [4] of the same molecule?
Answer: 40.16%

Question: What about the “editing activity in cynomolgus primary hepatocytes” value [4] of the same molecule?
Answer: high editing activity

Question: What about the “off-target editing observed at candidate off-target sites” value (from here on “off-target editing observed”) [2] of the same molecule?
Answer: little to no off-target editing

Question: What about the “editing efficiency at the on-target site” value ([2]; primary human hepatocytes) of the same molecule?
Answer: high editing efficiency

B2: GA461: guide RNA, spacer 5′-UACUCACCUCUGCAUGCUCA-3′ (SEQ ID NO: 476) (nucleic acid)
guide: TACTCACCTCTGCATGCTCAGTTTTAGAGCTAGAAATAGCAAGTTAAAATAAGGCTAGTCCGTTATCAACTTGAAAAAGTGGCACCGAGTCGGTGCTTTT
modifications: chemistry not given here
Question: For B2, which “Human hepatocytes- Editing % 625, rep 1” value [1] is on record?
Answer: 21.81%

Question: And the “Human hepatocytes- Editing % 625, rep 2” value [1]?
Answer: 22.31%

Question: What about the “Human hepatocytes- Editing % 1250, rep 1” value [1] of the same molecule?
Answer: 32.82%

Question: What about the “Human hepatocytes- Editing % 1250, rep 2” value [1] of the same molecule?
Answer: 32.38%

Question: And the “Human hepatocytes- Editing % 2500, rep 1” value [1]?
Answer: 40.42%

Question: What about the “Human hepatocytes- Editing % 2500, rep 2” value [1] of the same molecule?
Answer: 39.43%

Question: What about the “editing activity (percent splice editing) in human hepatocytes” value [1] of the same molecule?
Answer: high editing activity

Question: And the “Cyno hepatocytes- Editing % 156.25” value [4]?
Answer: 0.07%

Question: What about the “Cyno hepatocytes- Editing % 312.5” value [4] of the same molecule?
Answer: 7.45%

Question: And the “Cyno hepatocytes- Editing % 625” value [4]?
Answer: 13.16%

Question: What about the “Cyno hepatocytes- Editing % 1250” value [4] of the same molecule?
Answer: 19.46%

Question: And the “Cyno hepatocytes- Editing % 2500” value [4]?
Answer: 29.8%

Question: And the “Cyno hepatocytes- Editing % 5000” value [4]?
Answer: 37.53%

Question: And the “editing activity in cynomolgus primary hepatocytes” value [4]?
Answer: high editing activity

Question: What about the “off-target editing observed” value [2] of the same molecule?
Answer: little to no off-target editing

Question: And the “editing efficiency at the on-target site” value ([2]; primary human hepatocytes)?
Answer: high editing efficiency

B3: sgRNA_361: guide RNA, SEQ ID NO: 479 (nucleic acid)
guide: mU*mA*mU*rArGrGrArArArArCrCrArGrUrGrArGrUrCrGrUrUrUrUrArGrArGrCrUrArGrArArArUrArGrCrArArGrUrUrArArArArUrArArGrGrCrUrArGrUrCrCrGrUrUrArUrCrArArCrUrUrGrArArArArArGrUrGrGrCrArCrCrGrArGrUrCrGrGrUrGrCmU*mU*mU*rU
Question: Which “splice site disruption using ABE and/or BE4” value [5] does the source give for B3 here?
Answer: worked well

B4: sgRNA_362: guide RNA, SEQ ID NO: 480 (nucleic acid)
guide: mU*mA*mC*rUrCrArCrCrUrCrUrGrCrArUrGrCrUrCrArGrUrUrUrUrArGrArGrCrUrArGrArArArUrArGrCrArArGrUrUrArArArArUrArArGrGrCrUrArGrUrCrCrGrUrUrArUrCrArArCrUrUrGrArArArArArGrUrGrGrCrArCrCrGrArGrUrCrGrGrUrGrCmU*mU*mU*rU
Question: Which “splice site disruption using ABE and/or BE4” value [5] does the source give for B4 here?
Answer: worked well

B5: GA459: guide RNA, spacer 5′-GCAACUUACCCAGAGGCAAA-3′ (SEQ ID NO: 474) (nucleic acid)
guide: GCAACTTACCCAGAGGCAAAGTTTTAGAGCTAGAAATAGCAAGTTAAAATAAGGCTAGTCCGTTATCAACTTGAAAAAGTGGCACCGAGTCGGTGCTTTT
modifications: chemistry not given here
Question: With B5 as the molecule, how does the “Human hepatocytes- Editing % 625, rep 1” value [1] read?
Answer: 3.79%

Question: What about the “Human hepatocytes- Editing % 625, rep 2” value [1] of the same molecule?
Answer: 3.89%

Question: What about the “Human hepatocytes- Editing % 1250, rep 1” value [1] of the same molecule?
Answer: 5.46%

Question: What about the “Human hepatocytes- Editing % 1250, rep 2” value [1] of the same molecule?
Answer: 6.15%

Question: What about the “Human hepatocytes- Editing % 2500, rep 1” value [1] of the same molecule?
Answer: 8.5%

Question: And the “Human hepatocytes- Editing % 2500, rep 2” value [1]?
Answer: 8.69%

Question: And the “off-target editing observed” value [2]?
Answer: little to no off-target editing

Question: What about the “SUM Editing %- Human Primary Hepatocytes Treat rep 1” value [2, 6] of the same molecule?
Answer: 14.17%

Question: What about the “SUM Editing %- Human Primary Hepatocytes Treat rep 2” value [2, 6] of the same molecule?
Answer: 14.29%

Question: What about the “SUM Editing %- Human Primary Hepatocytes Treat rep 1” value [2, 7] of the same molecule?
Answer: 1.19%

Question: What about the “SUM Editing %- Human Primary Hepatocytes Treat rep 2” value [2, 7] of the same molecule?
Answer: 1.25%

Question: And the “SUM Editing %- Human Primary Hepatocytes Treat rep 1” value [2, 8]?
Answer: 0.98%

Question: What about the “SUM Editing %- Human Primary Hepatocytes Treat rep 2” value [2, 8] of the same molecule?
Answer: 0.82%

Question: What about the “editing efficiency at the on-target site” value ([2]; primary human hepatocytes) of the same molecule?
Answer: high editing efficiency
